Experimental data as given in US20200048358A1 (ALLIGATOR BIOSCIENCE, published 2020).
Numbering of substitutions follows the chain as printed.

T1: chimeric OX40 construct 1545: Human OX40 with mouse domains 1B, 2A and 2B (aa 43-107) (human; mouse, UniProt P47741 39-103)
T1 construct: domain: 1B, 2A and 2B; On 293-F cells; limits derived as for 1544
T1 sequence: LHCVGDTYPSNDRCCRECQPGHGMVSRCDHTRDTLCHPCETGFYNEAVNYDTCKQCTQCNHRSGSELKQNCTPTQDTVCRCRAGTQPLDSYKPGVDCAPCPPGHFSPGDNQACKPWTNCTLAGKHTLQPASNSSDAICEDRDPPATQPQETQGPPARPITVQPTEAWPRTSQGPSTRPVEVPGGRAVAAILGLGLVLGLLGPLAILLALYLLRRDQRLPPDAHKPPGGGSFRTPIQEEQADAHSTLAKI

T2: chimeric OX40 construct 1547: Human OX40 with mouse domain 2B, module 3 and domain 4A (aa 83-141) (human; mouse, UniProt P47741 79-139)
T2 construct: domain: 2B, module 3 and domain 4A; On 293-F cells; limits derived as for 1544
T2 sequence: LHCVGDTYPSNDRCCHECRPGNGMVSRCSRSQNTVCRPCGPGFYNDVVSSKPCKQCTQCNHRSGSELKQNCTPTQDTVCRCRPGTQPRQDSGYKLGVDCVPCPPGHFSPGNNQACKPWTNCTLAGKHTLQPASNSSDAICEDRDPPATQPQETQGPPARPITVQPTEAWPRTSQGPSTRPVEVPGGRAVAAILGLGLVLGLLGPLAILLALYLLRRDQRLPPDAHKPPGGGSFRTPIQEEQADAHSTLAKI

T3: chimeric OX40 construct 1548: Human OX40 with mouse module 3 and domains 4A and 4B (aa 108-167) (human; mouse, UniProt P47741 104-165)
T3 construct: domain: module 3 and domains 4A and 4B; On 293-F cells; limits derived as for 1544
T3 sequence: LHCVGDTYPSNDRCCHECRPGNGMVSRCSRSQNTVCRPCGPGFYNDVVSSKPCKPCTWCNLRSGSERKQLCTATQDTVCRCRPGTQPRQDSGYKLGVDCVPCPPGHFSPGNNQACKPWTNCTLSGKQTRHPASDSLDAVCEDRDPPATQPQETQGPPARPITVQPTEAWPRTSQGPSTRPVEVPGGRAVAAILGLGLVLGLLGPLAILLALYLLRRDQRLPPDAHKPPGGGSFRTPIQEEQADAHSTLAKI

T4: chimeric OX40 construct 1546: Human OX40 with mouse domains 2A, 2B and module 3 (aa 66-126) (human; mouse, UniProt P47741 62-124)
T4 construct: domain: 2A, 2B and module 3; On 293-F cells; limits derived as for 1544
T4 sequence: T2 sequence with G40E, P41T, D46E, V47A, S49N, S50Y, K51D, P52T, N111D

T5: construct 84: Construct containing the full length OX40 sequence (human, UniProt P43489 29-277)
T5 construct: On transiently transfected FreeStyle 293-F cells; also called human OX40 (full length, on 293-F cells)
T5 sequence: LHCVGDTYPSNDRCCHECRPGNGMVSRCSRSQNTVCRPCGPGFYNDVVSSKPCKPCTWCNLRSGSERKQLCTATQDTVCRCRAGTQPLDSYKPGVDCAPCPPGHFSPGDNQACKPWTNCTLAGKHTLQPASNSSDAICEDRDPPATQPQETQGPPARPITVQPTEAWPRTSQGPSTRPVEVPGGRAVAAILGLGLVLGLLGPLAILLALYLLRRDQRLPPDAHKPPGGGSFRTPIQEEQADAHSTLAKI

T6: chimeric OX40 construct 1544: Human OX40 with mouse domains 1A, 1B and 2A (aa 30-81) (human; mouse, UniProt P47741 26-77)
T6 construct: domain: 1A, 1B and 2A; On transiently transfected FreeStyle 293-F cells
T6 sequence: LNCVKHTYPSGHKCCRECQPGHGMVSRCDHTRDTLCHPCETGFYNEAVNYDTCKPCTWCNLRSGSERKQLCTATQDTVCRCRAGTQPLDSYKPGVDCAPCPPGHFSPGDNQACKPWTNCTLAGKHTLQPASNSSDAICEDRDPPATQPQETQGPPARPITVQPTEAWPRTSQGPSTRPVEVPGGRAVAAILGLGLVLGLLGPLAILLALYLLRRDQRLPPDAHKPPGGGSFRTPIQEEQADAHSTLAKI

B1: CD86 mutant 910 (ligand)
chain: LKIQAYFNETADLPCQFANSQNQSLSELVVFWQDQENLVLNEVYLGKEKFDSVDSKYMGRTSFDSDSWTLRLHNLQIKDKGIYQCIIHHKKPTGMVKIHEMNSELSVLA
notes: Variant of the soluble extracellular domain of human CD86
B2: CD86 mutant 907 (ligand)
chain: B1 chain with D54H, I82L, V96I
notes: as for B1
B3: CD86 mutant 938 (ligand)
chain: B1 chain with V39I, D54H, E100Q
notes: as for B1
B4: CD86 mutant 904 (ligand)
chain: B1 chain with V29I, K49R, S52A, T93S, E100Q, N102D
notes: as for B1
B5: CD86 mutant 915 (ligand)
chain: B1 chain with V39I, I82F, T93S, M95L, V96I, E100Q, N102D
notes: as for B1
B6: CD86 mutant 901 (ligand)
chain: B1 chain with Q23L, S24T, D54H, I86V, V96I, A109T
notes: as for B1
B7: CD86 mutant 908 (ligand)
chain: B1 chain with D54H
notes: as for B1
B8: CD86 mutant 906 (ligand)
chain: B1 chain with F7I, Q23L, K49R, I82F, M95L
notes: as for B1
B9: human wild-type CD86 (monomeric soluble extracellular domain), sample 'Wild type' (ligand)
chain: APLKIQAYFNETADLPCQFANSQNQSLSELVVFWQDQENLVLNEVYLGKEKFDSVHSKYMGRTSFDSDSWTLRLHNLQIKDKGLYQCIIHHKKPTGMIRIHQMNSELSVLA
notes: also called wild type protein
B10: CD86 mutant 900 (ligand)
chain: B1 chain with I86V, T93S, M95L
notes: as for B1
B11: anti-OX40 antibody 1524/1525 (antibody, V domains shown)
VH: EVQLLESGGGLVQPGGSLRLSCAASGFTFGSYYMGWVRQAPGKGLEWVSSIGSYYGYTYYADSVKGRFTISRDNSKNTLYLQMNSLRAEDTAVYYCARHDYGALDYWGQGTLVTVSS
VL: DIQMTQSPSSLSASVGDRVTITCRASQSISSYLNWYQQKPGKAPKLLIYAASSLQSGVPSRFSGSGSGTDFTLTISSLQPEDFATYYCQQYGPSGLFTFGQGTKLEIK
notes: Tested as IgG
B12: anti-OX40 antibody 1164/1135 (antibody, V domains shown)
VH: EVQLLESGGGLVQPGGSLRLSCAASGFTFYGSSMYWVRQAPGKGLEWVSGIYSSGGYTSYADSVKGRFTISRDNSKNTLYLQMNSLRAEDTAVYYCARGVPHGYFDYWGQGTLVTVSS
VL: not shown
notes: Tested as IgG
B13: anti-OX40 antibody 1166/1167 (antibody, V domains shown)
VH: EVQLLESGGGLVQPGGSLRLSCAASGFTFGGYYMSWVRQAPGKGLEWVSAISGSGGSTYYADSVKGRFTISRDNSKNTLYLQMNSLRAEDTAVYYCARYDYASMDYWGQGTLVTVSS
VL: B11 VL with G92Y, P93W, S94Y, F97S
notes: also called monospecific OX40 antibody
B14: anti-OX40 antibody 1170/1171 (antibody, V domains shown)
VH: B13 VH with A50Y, S52P, A102Y, S103W
VL: B11 VL with Y91G, G92H, P93G, G95Y, L96P, F97H
notes: Tested as IgG
B15: anti-OX40 antibody 1514/1515 (antibody, V domains shown)
VH: EVQLLESGGGLVQPGGSLRLSCAASGFTFGYYYMSWVRQAPGKGLEWVSGISSYGSYTYYADSVKGRFTISRDNSKNTLYLQMNSLRAEDTAVYYCARSGYSNWANSFDYWGQGTLVTVSS
VL: DIQMTQSPSSLSASVGDRVTITCRASQSISSYLNWYQQKPGKAPKLLIYAASSLQSGVPSRFSGSGSGTDFTLTISSLQPEDFATYYCQQGDYTLFTFGQGTKLEIK
notes: Tested as IgG
B16: anti-OX40 antibody 1490/1135 (antibody, V domains shown)
VH: EVQLLESGGGLVQPGGSLRLSCAASGFTFSSYAMSWVRQAPGKGLEWVSGISYYGGYTYYADSVKGRFTISRDNSKNTLYLQMNSLRAEDTAVYYCARYYPHHYIDYWGQGTLVTVSS
VL: not shown
notes: Tested as IgG

target: T7, CTLA4-Fc (Fitzgerald, #30R-CD152) (human, UniProt P16410 38-152, biotinylated where used as soluble reagent in the inhibition ELISAs); assay: SPR (Biacore); ratio [Kd for CD28]/[Kd for CTLA-4]
T7 construct: Bought reagent; also called human CTLA-4 (Fitzgerald); biotinylated-CTLA4
T7 sequence (P16410 38-152 limits assumed): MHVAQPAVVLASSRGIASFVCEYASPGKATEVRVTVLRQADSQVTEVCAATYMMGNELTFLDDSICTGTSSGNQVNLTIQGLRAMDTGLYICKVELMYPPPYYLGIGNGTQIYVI
Protocol: Either CTLA4-Fc (Fitzgerald, #30R-CD152) or CD28-Fc (R&D Systems, 342-CD) was immobilized to the Biacore™ sensor chip, CM5, using conventional amine coupling. […] The association was followed for 3 minutes and the dissociation for 10 minutes. Regeneration was performed twice using 5 mM NaOH for 30 seconds. The kinetic parameters and the affinity constants were calculated using BIAevaluation 4.1 software (Table 1.3).

Kd binding ratio	Binder
5.1	B1
5.6	B2
5.5	B3
6.8	B4
1.9	B5
2.7	B6
4.7	B7
0.8	B8
1.6	B9

target: T7, CTLA4-Fc (Fitzgerald, #30R-CD152); assay: binding ELISA; ratio [EC50 for CD28-Fc]/[EC50 for CTLA4-Fc]
Protocol: 96-well flat bottom high binding plates (Greiner, #655074) were coated with either CTLA4-Fc (Fitzgerald, #30R-CD152) or CD28-Fc (R&D systems, 342-CD) by incubating overnight at 4° C. […] The plates were washed again and sample or controls (serially diluted 1/5 from 200-0.001 μg/ml) were added to the wells. The samples were incubated for 1 h at room temperature and then washed. Detection antibody, goat-anti-human IgG Fcγ-HRP (Jackson, #109-035-098) was added and the plates were subsequently developed using SuperSignal Pico Chemiluminescent substrate (Thermo Scientific, #37069) and detected with an Envision reader (Perkin Elmer). EC50 values were calculated for both CTLA4 and CD28. The binding ratio (EC50 binding ratio=[EC50 for CD28]÷[EC50 for CTLA-4]) was calculated for each polypeptide and is shown in Table 1.1.

EC50 binding ratio	Binder
7.7	B1
30.5	B2
2	B3
12.2	B4
9.9	B5
17.2	B6
6.2	B7
3.5	B10
16.2	B8
3.4	B9

target: T1, chimeric OX40 construct 1545: Human …; assay: flow cytometry, transfected 293-F cells
Protocol: (§1) The mouse/human chimeras were transiently transfected into FreeStyle 293-F cells (Invitrogen), incubated 48 hours in FreeStyle 293 expression medium (Invitrogen) 37 C, 8% CO₂, 135 rpm. The transfected cells were incubated with human OX40 antibodies, human OX40L (hOX40L, RnD Systems), mouse OX40L (mOX40L, RnD Systems) and controls for 30 min 4° C. and then detected with a-huIgG-PE (Jackson lmmunoresearch) 30 min 4° C. Cells were analyzed with FACS Verse (BD Biosciences). Binding to the different chimeric constructs were calculated as relative (mean fluorescence intensity) MFI compared to the binding of the isotype control.

relative MFI compared to isotype control	Binder
0.9	B11
37.3	B12

target: T2, chimeric OX40 construct 1547: Human …; assay: flow cytometry, transfected 293-F cells
Protocol: as §1

relative MFI compared to isotype control	Binder
1	B11
1	B12

target: T3, chimeric OX40 construct 1548: Human …; assay: flow cytometry, transfected 293-F cells
Protocol: as §1

relative MFI compared to isotype control	Binder
15.4	B11
15.8	B13
20.3	B14
17.2	B15
1	B12
1.1	B16

target: T4, chimeric OX40 construct 1546: Human …; assay: flow cytometry, transfected 293-F cells
Protocol: as §1

relative MFI compared to isotype control	Binder
0.9	B11
0.9	B12

target: T5, construct 84: Construct containing the …; assay: flow cytometry, transfected 293-F cells
Protocol: as §1

relative MFI compared to isotype control	Binder
31.4	B11
27.5	B12

target: T6, chimeric OX40 construct 1544: Human …; assay: flow cytometry, transfected 293-F cells
Protocol: as §1

relative MFI compared to isotype control	Binder
1.5	B11
